Patent publication US20120121591A1 (priority 2009, published 2012)

Legend:
[1] = target: human Kv1.3 (Homo sapiens, UniProt P22001); assay: cell-based or functional assay
[2] = target: human Kv1.1 (Homo sapiens, UniProt Q09470); assay: cell-based or functional assay
human Kv1.1, sequence (Q09470 whole entry): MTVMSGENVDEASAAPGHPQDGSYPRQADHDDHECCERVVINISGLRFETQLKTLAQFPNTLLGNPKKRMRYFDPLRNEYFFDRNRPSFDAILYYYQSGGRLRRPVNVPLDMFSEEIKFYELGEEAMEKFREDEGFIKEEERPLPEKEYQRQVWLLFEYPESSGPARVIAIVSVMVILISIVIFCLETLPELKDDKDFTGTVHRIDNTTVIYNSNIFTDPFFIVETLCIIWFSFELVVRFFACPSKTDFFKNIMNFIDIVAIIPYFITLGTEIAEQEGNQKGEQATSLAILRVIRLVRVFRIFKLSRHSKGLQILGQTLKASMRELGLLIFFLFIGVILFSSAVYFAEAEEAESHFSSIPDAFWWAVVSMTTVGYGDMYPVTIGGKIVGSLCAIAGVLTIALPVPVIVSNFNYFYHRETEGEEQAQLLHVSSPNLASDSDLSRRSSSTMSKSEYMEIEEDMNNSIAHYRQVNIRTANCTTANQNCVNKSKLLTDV

human Kv1.3, sequence (P22001 whole entry): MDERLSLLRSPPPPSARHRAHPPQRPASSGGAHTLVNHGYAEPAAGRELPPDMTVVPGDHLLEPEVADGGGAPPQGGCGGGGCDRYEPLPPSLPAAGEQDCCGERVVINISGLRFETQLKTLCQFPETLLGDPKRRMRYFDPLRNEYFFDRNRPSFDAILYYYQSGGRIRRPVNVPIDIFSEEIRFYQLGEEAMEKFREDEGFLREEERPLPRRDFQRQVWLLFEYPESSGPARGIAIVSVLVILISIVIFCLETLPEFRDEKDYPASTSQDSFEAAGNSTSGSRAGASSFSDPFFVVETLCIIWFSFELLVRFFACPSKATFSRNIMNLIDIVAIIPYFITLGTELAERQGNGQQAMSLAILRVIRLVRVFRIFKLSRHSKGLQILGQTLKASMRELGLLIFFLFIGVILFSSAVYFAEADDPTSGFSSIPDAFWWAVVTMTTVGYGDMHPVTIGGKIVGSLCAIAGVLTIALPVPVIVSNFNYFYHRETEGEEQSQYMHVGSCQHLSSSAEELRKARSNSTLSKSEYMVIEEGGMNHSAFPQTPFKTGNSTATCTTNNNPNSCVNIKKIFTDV

Substance | Kv1.3 (IWQ) IC50 [1] | WB (IFNg) IC50 [1] | WB (IL-2) IC50 [1] | Kv1.1 (IWQ) IC50 [2]
[Glu4; Lys16,29; 1-Nal26;Arg30]ShK-amide (peptide) | 0.384 nM | 0.598 nM | 0.712 nM | 
[Glu4; Lys16,29;Arg18,30; Nle21]ShK-amide (peptide) | 0.269 nM | 1.33 nM | 1.96 nM | 
[Glu4;Lys16,29;1-Nal26;Arg30;Nle21]ShK-amide (peptide) | 1.66 nM | 17.4 nM | 10.7 nM | 3.3 nM
